Test system: HAB1
Assay: Yeast two hybrid of pBD-PYR1 site saturation mutants with pACT-HAB1 on 10 μM ABA, β-galactosidase staining
Type: cell-based, Arabidopsis
Design: key: x: Mutations in PYR1 that disrupt ABA-induced binding to PYR1 to HAB1
Conditions: S. cerevisiae Y190, 10 μM ABA; dead = lack of visible staining in comparison to wild type control
Text: To systematically identify mutations in PYR1 that disrupt its binding to HAB1, we utilized a collection of saturating mutations that contain all possible single amino acid substitutions in 24 conserved interface residues involved in binding HAB1, which was previously constructed for the purpose of engineering constitutively active ABA receptor variants (Mosquna et al., 2011). The interface residues previously mutagenized in this collection are the following: H60, F61, I62, K63, I84, S85, G86, L87, P88, A89, H115, R116, L117, P148, G150, N151, D154, D155, T156, M158, F159, T162, L166, K170. This set was made by mutagenizing a pBD-PYR1 template that encodes a GAL4-DNA binding domain fusion to PYR1, which can be used to assess receptor-HAB1 binding in S. cerevisiae strains co-transformed with pACT-HAB1, which expresses a GAL4 activation domain fusion to HAB1. Mutant pBD-PYR1 clones from the collection are maintained in S. cerevisiae strain Y190 co-transformed with pACT-HAB1. The test strains were spotted onto agar plates containing synthetic dextrose dropout media lacking leucine and tryptophan [SD (-Leu, -Trp)] medium supplemented with 10 μM ABA. After incubating the test plates at 30° C. for two days, colonies were chloroform lysed and stained to reveal […] expression levels and “dead” mutants were defined by lack of visible staining in comparison to a wild type control. This effort defined 237 mutations that disrupt ABA-induced binding of PYR1 to HAB1 (Table 1). Premade yeast drop out supplements (Clontech) were utilized in this and other examples for media preparation, amino acids and other standard chemicals were purchased from Sigma-Aldrich (USA). The naturally occurring (+)-ABA isomer was used in all experiments and purchased from Biosynth Ag (Switzerland).

| Molecule | Mutations in PYR1 that disrupt ABA-induced binding to PYR1 to HAB1 |
| --- | --- |
| G86A: PYR1 mutant (protein, UniProt O49686 1-191, looked up, variant G86A) Abscisic acid receptor PYR1: MPSELTPEERSELKNSIAEFHTYQLDPGSCSSLHAQRIHAPPELVWSIVRRFDKPQTYKHFIKSCSVEQNFEMRVGCTRDVIVISALPANTSTERLDILDDERRVTGFSIIGGEHRLTNYKSVTTVHRFEKENRIWTVVLESYVVDMPEGNSEDDTRMFADTVVKLNLQKLATVAEAMARNSGDGSGSQVT | x |
| G86S: PYR1 mutant (protein, UniProt O49686 1-191, looked up, variant G86S) Abscisic acid receptor PYR1: MPSELTPEERSELKNSIAEFHTYQLDPGSCSSLHAQRIHAPPELVWSIVRRFDKPQTYKHFIKSCSVEQNFEMRVGCTRDVIVISSLPANTSTERLDILDDERRVTGFSIIGGEHRLTNYKSVTTVHRFEKENRIWTVVLESYVVDMPEGNSEDDTRMFADTVVKLNLQKLATVAEAMARNSGDGSGSQVT | x |
| G86W: PYR1 mutant (protein, UniProt O49686 1-191, looked up, variant G86W) Abscisic acid receptor PYR1: MPSELTPEERSELKNSIAEFHTYQLDPGSCSSLHAQRIHAPPELVWSIVRRFDKPQTYKHFIKSCSVEQNFEMRVGCTRDVIVISWLPANTSTERLDILDDERRVTGFSIIGGEHRLTNYKSVTTVHRFEKENRIWTVVLESYVVDMPEGNSEDDTRMFADTVVKLNLQKLATVAEAMARNSGDGSGSQVT | x |
| G86T: PYR1 mutant (protein, UniProt O49686 1-191, looked up, variant G86T) Abscisic acid receptor PYR1: MPSELTPEERSELKNSIAEFHTYQLDPGSCSSLHAQRIHAPPELVWSIVRRFDKPQTYKHFIKSCSVEQNFEMRVGCTRDVIVISTLPANTSTERLDILDDERRVTGFSIIGGEHRLTNYKSVTTVHRFEKENRIWTVVLESYVVDMPEGNSEDDTRMFADTVVKLNLQKLATVAEAMARNSGDGSGSQVT | x |
| G86Q: PYR1 mutant (protein, UniProt O49686 1-191, looked up, variant G86Q) Abscisic acid receptor PYR1: MPSELTPEERSELKNSIAEFHTYQLDPGSCSSLHAQRIHAPPELVWSIVRRFDKPQTYKHFIKSCSVEQNFEMRVGCTRDVIVISQLPANTSTERLDILDDERRVTGFSIIGGEHRLTNYKSVTTVHRFEKENRIWTVVLESYVVDMPEGNSEDDTRMFADTVVKLNLQKLATVAEAMARNSGDGSGSQVT | x |
| G86F: PYR1 mutant (protein, UniProt O49686 1-191, looked up, variant G86F) Abscisic acid receptor PYR1: MPSELTPEERSELKNSIAEFHTYQLDPGSCSSLHAQRIHAPPELVWSIVRRFDKPQTYKHFIKSCSVEQNFEMRVGCTRDVIVISFLPANTSTERLDILDDERRVTGFSIIGGEHRLTNYKSVTTVHRFEKENRIWTVVLESYVVDMPEGNSEDDTRMFADTVVKLNLQKLATVAEAMARNSGDGSGSQVT | x |
| G86K: PYR1 mutant (protein, UniProt O49686 1-191, looked up, variant G86K) Abscisic acid receptor PYR1: MPSELTPEERSELKNSIAEFHTYQLDPGSCSSLHAQRIHAPPELVWSIVRRFDKPQTYKHFIKSCSVEQNFEMRVGCTRDVIVISKLPANTSTERLDILDDERRVTGFSIIGGEHRLTNYKSVTTVHRFEKENRIWTVVLESYVVDMPEGNSEDDTRMFADTVVKLNLQKLATVAEAMARNSGDGSGSQVT | x |
| G86P: PYR1 mutant (protein, UniProt O49686 1-191, looked up, variant G86P) Abscisic acid receptor PYR1: MPSELTPEERSELKNSIAEFHTYQLDPGSCSSLHAQRIHAPPELVWSIVRRFDKPQTYKHFIKSCSVEQNFEMRVGCTRDVIVISPLPANTSTERLDILDDERRVTGFSIIGGEHRLTNYKSVTTVHRFEKENRIWTVVLESYVVDMPEGNSEDDTRMFADTVVKLNLQKLATVAEAMARNSGDGSGSQVT | x |
| G86M: PYR1 mutant (protein, UniProt O49686 1-191, looked up, variant G86M) Abscisic acid receptor PYR1: MPSELTPEERSELKNSIAEFHTYQLDPGSCSSLHAQRIHAPPELVWSIVRRFDKPQTYKHFIKSCSVEQNFEMRVGCTRDVIVISMLPANTSTERLDILDDERRVTGFSIIGGEHRLTNYKSVTTVHRFEKENRIWTVVLESYVVDMPEGNSEDDTRMFADTVVKLNLQKLATVAEAMARNSGDGSGSQVT | x |
| G86V: PYR1 mutant (protein, UniProt O49686 1-191, looked up, variant G86V) Abscisic acid receptor PYR1: MPSELTPEERSELKNSIAEFHTYQLDPGSCSSLHAQRIHAPPELVWSIVRRFDKPQTYKHFIKSCSVEQNFEMRVGCTRDVIVISVLPANTSTERLDILDDERRVTGFSIIGGEHRLTNYKSVTTVHRFEKENRIWTVVLESYVVDMPEGNSEDDTRMFADTVVKLNLQKLATVAEAMARNSGDGSGSQVT | x |
| G86H: PYR1 mutant (protein, UniProt O49686 1-191, looked up, variant G86H) Abscisic acid receptor PYR1: MPSELTPEERSELKNSIAEFHTYQLDPGSCSSLHAQRIHAPPELVWSIVRRFDKPQTYKHFIKSCSVEQNFEMRVGCTRDVIVISHLPANTSTERLDILDDERRVTGFSIIGGEHRLTNYKSVTTVHRFEKENRIWTVVLESYVVDMPEGNSEDDTRMFADTVVKLNLQKLATVAEAMARNSGDGSGSQVT | x |
| G86Y: PYR1 mutant (protein, UniProt O49686 1-191, looked up, variant G86Y) Abscisic acid receptor PYR1: MPSELTPEERSELKNSIAEFHTYQLDPGSCSSLHAQRIHAPPELVWSIVRRFDKPQTYKHFIKSCSVEQNFEMRVGCTRDVIVISYLPANTSTERLDILDDERRVTGFSIIGGEHRLTNYKSVTTVHRFEKENRIWTVVLESYVVDMPEGNSEDDTRMFADTVVKLNLQKLATVAEAMARNSGDGSGSQVT | x |
| G86I: PYR1 mutant (protein, UniProt O49686 1-191, looked up, variant G86I) Abscisic acid receptor PYR1: MPSELTPEERSELKNSIAEFHTYQLDPGSCSSLHAQRIHAPPELVWSIVRRFDKPQTYKHFIKSCSVEQNFEMRVGCTRDVIVISILPANTSTERLDILDDERRVTGFSIIGGEHRLTNYKSVTTVHRFEKENRIWTVVLESYVVDMPEGNSEDDTRMFADTVVKLNLQKLATVAEAMARNSGDGSGSQVT | x |
| G86D: PYR1 mutant (protein, UniProt O49686 1-191, looked up, variant G86D) Abscisic acid receptor PYR1: MPSELTPEERSELKNSIAEFHTYQLDPGSCSSLHAQRIHAPPELVWSIVRRFDKPQTYKHFIKSCSVEQNFEMRVGCTRDVIVISDLPANTSTERLDILDDERRVTGFSIIGGEHRLTNYKSVTTVHRFEKENRIWTVVLESYVVDMPEGNSEDDTRMFADTVVKLNLQKLATVAEAMARNSGDGSGSQVT | x |
| G86E: PYR1 mutant (protein, UniProt O49686 1-191, looked up, variant G86E) Abscisic acid receptor PYR1: MPSELTPEERSELKNSIAEFHTYQLDPGSCSSLHAQRIHAPPELVWSIVRRFDKPQTYKHFIKSCSVEQNFEMRVGCTRDVIVISELPANTSTERLDILDDERRVTGFSIIGGEHRLTNYKSVTTVHRFEKENRIWTVVLESYVVDMPEGNSEDDTRMFADTVVKLNLQKLATVAEAMARNSGDGSGSQVT | x |
| G86L: PYR1 mutant (protein, UniProt O49686 1-191, looked up, variant G86L) Abscisic acid receptor PYR1: MPSELTPEERSELKNSIAEFHTYQLDPGSCSSLHAQRIHAPPELVWSIVRRFDKPQTYKHFIKSCSVEQNFEMRVGCTRDVIVISLLPANTSTERLDILDDERRVTGFSIIGGEHRLTNYKSVTTVHRFEKENRIWTVVLESYVVDMPEGNSEDDTRMFADTVVKLNLQKLATVAEAMARNSGDGSGSQVT | x |
| G86N: PYR1 mutant (protein, UniProt O49686 1-191, looked up, variant G86N) Abscisic acid receptor PYR1: MPSELTPEERSELKNSIAEFHTYQLDPGSCSSLHAQRIHAPPELVWSIVRRFDKPQTYKHFIKSCSVEQNFEMRVGCTRDVIVISNLPANTSTERLDILDDERRVTGFSIIGGEHRLTNYKSVTTVHRFEKENRIWTVVLESYVVDMPEGNSEDDTRMFADTVVKLNLQKLATVAEAMARNSGDGSGSQVT | x |
| G86R: PYR1 mutant (protein, UniProt O49686 1-191, looked up, variant G86R) Abscisic acid receptor PYR1: MPSELTPEERSELKNSIAEFHTYQLDPGSCSSLHAQRIHAPPELVWSIVRRFDKPQTYKHFIKSCSVEQNFEMRVGCTRDVIVISRLPANTSTERLDILDDERRVTGFSIIGGEHRLTNYKSVTTVHRFEKENRIWTVVLESYVVDMPEGNSEDDTRMFADTVVKLNLQKLATVAEAMARNSGDGSGSQVT | x |
| G86C: PYR1 mutant (protein, UniProt O49686 1-191, looked up, variant G86C) Abscisic acid receptor PYR1: MPSELTPEERSELKNSIAEFHTYQLDPGSCSSLHAQRIHAPPELVWSIVRRFDKPQTYKHFIKSCSVEQNFEMRVGCTRDVIVISCLPANTSTERLDILDDERRVTGFSIIGGEHRLTNYKSVTTVHRFEKENRIWTVVLESYVVDMPEGNSEDDTRMFADTVVKLNLQKLATVAEAMARNSGDGSGSQVT | x |

Reference: patent publication US10919943B2, “Mutant proteins enabling agrochemical control of plant gene expression” (The Regents of the University of California, priority 2016, dated 2021)
